Data taken from patent US20120191435A1 (SHANGHAI NATIONAL ENGINEERING RESEARCH CENTER OF ANTIBODY …, published 2012).

T1: biotin labeled antigen peptide (a fragment of the CD20 extracellular domain) (human, UniProt P11836 163-187, limits assumed, biotin labeled (position not given))
T1 construct: domain: a fragment of the CD20 extracellular domain; also called short peptide CD20; CD20 antigen
T1 peptide (looked up): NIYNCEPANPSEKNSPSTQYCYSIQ


Experiments:
[1] = target: T1, biotin labeled antigen peptide (a …); assay: Biacore SPR, biotin-CD20 peptide on SA chip, antibody in flow
Description: (§1) A SA chip was balanced in 50 μl/min of PBS solution for 30 minutes at 25° C. and then activated three times with activation solution of 1M NaCl and 50 mM NaOH, for 1 minute per time. […] Then the chip was balanced in 50 μl/min of PBS solution for 10 minutes. The balanced SA chip was blocked with 0.04% of biotin solution. The antibody was diluted to five concentrations by double dilution. The samples were loaded at the flow rate of 50 μl/min for 75 seconds and dissociated with PBS solution for 10 minutes.

[2] = target: T1, biotin labeled antigen peptide (a …); assay: Biacore SPR, biotin-CD20 peptide on SA chip; ratio against un-mutated C2B8 (WT)
Description: as §1

[3] = target: T1, biotin labeled antigen peptide (a …); assay: Biacore SPR, biotin-CD20 peptide on SA chip; ratio against commercially available rituximab
Description: as §1

Kd [1] | KdWT/Kdmutant [2] | KdRitu/Kdmutant [3] | Binder
44.1 nM | – | – | anti-CD20 chimeric antibody Rituximab (C2B8), un-mutated, expressed in CHO-K1 cells in this filing (antibody, human IgG1, kappa, V domains shown, Whole chimeric IgG1 kappa; also called WT; un-mutated C2B8) VH: QVQLQQPGAELVKPGASVKMSCKASGYTFTSYNMHWVKQTPGRGLEWIGAIYPGNGDTSYNQKFKGKATLTADKSSSTAYMQLSSLTSEDSAVYYCARSTYYGGDWYFNVWGAGTTVTVSA VL: QIVLSQSPAILSASPGEKVTMTCRASSSVSYIHWFQQKPGSSPKPWIYATSNLASGVPVRFSGSGSGTSYSLTISRVEAEDAATYYCQQWTSNPPTFGGGTKLEIKR
– | 1.84 | 2.34 | C2B8 antibody mutant Rmut6 (H102YT) (antibody, V domains shown) VH: QVQLQQPGAELVKPGASVKMSCKASGYTFTSYNMHWVKQTPGRGLEWIGAIYPGNGDTSYNQKFKGKATLTADKSSSTAYMQLSSLTSEDSAVYYCARSTYTGGDWYFNVWGAGTTVTVSA VL: QIVLSQSPAILSASPGEKVTMTCRASSSVSYIHWFQQKPGSSPKPWIYATSNLASGVPVRFSGSGSGTSYSLTISRVEAEDAATYYCQQWTSNPPTFGGGTKLEIK
– | 3.96 | 5.04 | C2B8 antibody mutant Rmut7 (H102YK) (antibody, V domains shown) VH: QVQLQQPGAELVKPGASVKMSCKASGYTFTSYNMHWVKQTPGRGLEWIGAIYPGNGDTSYNQKFKGKATLTADKSSSTAYMQLSSLTSEDSAVYYCARSTYKGGDWYFNVWGAGTTVTVSA VL: QIVLSQSPAILSASPGEKVTMTCRASSSVSYIHWFQQKPGSSPKPWIYATSNLASGVPVRFSGSGSGTSYSLTISRVEAEDAATYYCQQWTSNPPTFGGGTKLEIK

Second part, the binder before the results:

Binder | Kd [1] | KdWT/Kdmutant [2] | KdRitu/Kdmutant [3]
C2B8 antibody mutant Rmut4 (H102YR) (antibody, V domains shown) VH: QVQLQQPGAELVKPGASVKMSCKASGYTFTSYNMHWVKQTPGRGLEWIGAIYPGNGDTSYNQKFKGKATLTADKSSSTAYMQLSSLTSEDSAVYYCARSTYRGGDWYFNVWGAGTTVTVSA VL: QIVLSQSPAILSASPGEKVTMTCRASSSVSYIHWFQQKPGSSPKPWIYATSNLASGVPVRFSGSGSGTSYSLTISRVEAEDAATYYCQQWTSNPPTFGGGTKLEIK | – | 1.75 | 2.23
C2B8 antibody mutant Rmut1 (H55NE) (antibody, V domains shown) VH: QVQLQQPGAELVKPGASVKMSCKASGYTFTSYNMHWVKQTPGRGLEWIGAIYPGEGDTSYNQKFKGKATLTADKSSSTAYMQLSSLTSEDSAVYYCARSTYYGGDWYFNVWGAGTTVTVSA VL: QIVLSQSPAILSASPGEKVTMTCRASSSVSYIHWFQQKPGSSPKPWIYATSNLASGVPVRFSGSGSGTSYSLTISRVEAEDAATYYCQQWTSNPPTFGGGTKLEIK | – | 0.54 | 0.69
C2B8 antibody mutant Rmut2 (H55NR) (antibody, V domains shown) VH: QVQLQQPGAELVKPGASVKMSCKASGYTFTSYNMHWVKQTPGRGLEWIGAIYPGRGDTSYNQKFKGKATLTADKSSSTAYMQLSSLTSEDSAVYYCARSTYYGGDWYFNVWGAGTTVTVSA VL: QIVLSQSPAILSASPGEKVTMTCRASSSVSYIHWFQQKPGSSPKPWIYATSNLASGVPVRFSGSGSGTSYSLTISRVEAEDAATYYCQQWTSNPPTFGGGTKLEIK | – | 0.61 | 0.78
C2B8 antibody mutant Rmut3 (H57DE) (antibody, V domains shown) VH: QVQLQQPGAELVKPGASVKMSCKASGYTFTSYNMHWVKQTPGRGLEWIGAIYPGNGETSYNQKFKGKATLTADKSSSTAYMQLSSLTSEDSAVYYCARSTYYGGDWYFNVWGAGTTVTVSA VL: QIVLSQSPAILSASPGEKVTMTCRASSSVSYIHWFQQKPGSSPKPWIYATSNLASGVPVRFSGSGSGTSYSLTISRVEAEDAATYYCQQWTSNPPTFGGGTKLEIK | – | 6.08 | 7.73
C2B8 antibody mutant Rmut5 (H102YS) (antibody, V domains shown) VH: QVQLQQPGAELVKPGASVKMSCKASGYTFTSYNMHWVKQTPGRGLEWIGAIYPGNGDTSYNQKFKGKATLTADKSSSTAYMQLSSLTSEDSAVYYCARSTYSGGDWYFNVWGAGTTVTVSA VL: QIVLSQSPAILSASPGEKVTMTCRASSSVSYIHWFQQKPGSSPKPWIYATSNLASGVPVRFSGSGSGTSYSLTISRVEAEDAATYYCQQWTSNPPTFGGGTKLEIK | – | 1.85 | 2.35
